Data on 79 sequences can be found in the supplement of paper PMC7877785.

± gives the uncertainty stated by the source.

This data set can be described thus: self-splicing fitness, log relative to wild type (ln ratio); higher = more splicing; Tetrahymena group I intron in knt gene, E. coli kanamycin selection, DiMSum; sequences stand for … in CUCUCU…GGAGGGAAAAGUUAUCAGGCAUGCACCUGGUAGCUAGUCUUUAAACCAAUAGAUUGCAUCGGUUUAAAAGGCAAGACCGUCAAAUUGCGGGAAAGGGGUCAACAGCCGUUCAGUACCAAGUCUCAGGGGAAACUUUGAGAUGGCCUUGCAAAGGGUAUGGUAAUAAGCUGACGGACAUGGUCCUAACCACGCAGCCAAGUCCUAAGUCAACAGAUCUUCUGUUGAUAUGGAUGCAGUUCACAGACUAAAUGUCGGUCGGGGAAGAUGUAUUCUUCUCAUAAGAUAUAGUCGGACCUCUCCUUAAUGGGAGCUAGCGGAUGAAGUGAUGCAACACUGGAGCCGCUGGGAACUAAUUUGUAUGCGAAAGUAUAUUGAUUAGUUUUGGAGUACUCGUGGUCG
An outline of the steps:
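Pooled colonies went to amplicon sequencing on an Illumina HiSeq 2500 after six replicate transformations. The plates were LB agar with 100 μg/mL carbenicillin, 50 μM IPTG and 0.2% rhamnose, with or without 25 μg/mL kanamycin, incubated overnight at 37°C or 30°C. The E. coli BL21(DE3) library had all eight P1ex-region intron nucleotides randomised, the intron placed in the knt kanamycin-resistance gene on pET-22b(+). DiMSum fitness is the error-weighted combination of replicate fold changes, kanamycin against none, normalised to wild type.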

Consider UUCUAGCAAUAUUACGCAAG, for which the “self-splicing fitness (ln)” value is, setting by setting: (30 °C) -2.26 ± 0.35; (37 °C) -0.437 ± 0.34.
As for UUCUAGCAAUAUUACGCUAU, the “self-splicing fitness (ln)” value (30 °C) is -4.08 ± 0.29 and the “self-splicing fitness (ln)” value (37 °C) was -1.42 ± 0.15.
As for UUCUAGCAAUAUUACGCUGG, for the setting “30 °C”, the “self-splicing fitness (ln)” value was -4.38 ± 0.46.
Regarding UUCUAGCAAUAUUACGGACG, the “self-splicing fitness (ln)” value reads like this: (30 °C) -1.14 ± 0.15; (37 °C) 0.26 ± 0.15.
As to UUCUAGCAAUAUUACGGAGA, the “self-splicing fitness (ln)” value (30 °C) was -2.45 ± 0.29 and the “self-splicing fitness (ln)” value (37 °C) was -2.41 ± 0.49.
The corresponding values for UUCUAGCAAUAUUACGGGCA are -0.323 ± 0.12 and -0.0935 ± 0.12.
Take UUCUAGCAAUAUUACGGGCC: the “self-splicing fitness (ln)” value (37 °C) was -2.38 ± 0.45.
With UUCUAGCAAUAUUACGGGCG, the “self-splicing fitness (ln)” value (30 °C) is -0.382 ± 0.12 and the “self-splicing fitness (ln)” value (37 °C) is -0.891 ± 0.12.
Turning to UUCUAGCAAUAUUACGGGUC, the “self-splicing fitness (ln)” value is -3.23 ± 0.32 (30 °C) and -1.94 ± 0.23 (37 °C).
The corresponding values for UUCUAGCAAUAUUACGGGUU are -2.34 ± 0.17 and -1.93 ± 0.24.
In the case of UUCUAGCAAUAUUACGGUGC, the “self-splicing fitness (ln)” value is -2.46 ± 0.4 (30 °C) and -2.96 ± 0.38 (37 °C).
Taken in the same sequence, the figures for UUCUAGCAAUAUUACGUAAA were -1.56 ± 0.26 and -0.54 ± 0.23.
Taken in the same sequence, the figures for UUCUAGCAAUAUUACGUAAU were -3.08 ± 0.15 and -1.88 ± 0.17.
Taken in the same sequence, the figures for UUCUAGCAAUAUUACGUACU were -3.29 ± 0.36 and -2.97 ± 0.47.
UUCUAGCAAUAUUACGUCGC: the “self-splicing fitness (ln)” value (30 °C) was -3.18 ± 0.44.
UUCUAGCAAUAUUACGUCUC: the “self-splicing fitness (ln)” value reads like this: (30 °C) -3.85 ± 0.37; (37 °C) -2.23 ± 0.25.
Taken in the same sequence, the figures for UUCUAGCAAUAUUACGUGCU were -3.37 ± 0.24 and -2.11 ± 0.24.
Turning to UUCUAGCAAUAUUACGUUAA, the “self-splicing fitness (ln)” value was -2.15 ± 0.23 (30 °C) and -1.32 ± 0.18 (37 °C).
Regarding UUCUAGCAAUAUUACGUUAC, the “self-splicing fitness (ln)” value is -2.41 ± 0.23 (30 °C) and -2.42 ± 0.29 (37 °C).
UUCUAGCAAUAUUACGUUGC: the “self-splicing fitness (ln)” value runs as follows: (30 °C) -4.72 ± 0.39; (37 °C) -2.64 ± 0.22.
On to UUCUAGCAAUAUUACGUUUG, for which the “self-splicing fitness (ln)” value is -3.49 ± 0.35 (30 °C) and -2.66 ± 0.4 (37 °C).
Turning to UUGAAGCAAUAUUACGAACU, the “self-splicing fitness (ln)” value runs as follows: (30 °C) -1.61 ± 0.21; (37 °C) 0.568 ± 0.2.
In the case of UUGAAGCAAUAUUACGAAGU, the “self-splicing fitness (ln)” value reads like this: (30 °C) -3.34 ± 0.19; (37 °C) -1.69 ± 0.21.
Consider UUGAAGCAAUAUUACGACAU, for which the “self-splicing fitness (ln)” value (30 °C) was determined as 0.0991 ± 0.013 and the “self-splicing fitness (ln)” value (37 °C) was 0.28 ± 0.033.
Taken in the same sequence, the figures for UUGAAGCAAUAUUACGACGA were 0.302 ± 0.12 and 0.04 ± 0.14.
The corresponding values for UUGAAGCAAUAUUACGAGAC are -3.37 ± 0.17 and -2.5 ± 0.19.
Consider UUGAAGCAAUAUUACGAUCA, for which the “self-splicing fitness (ln)” value was -0.786 ± 0.1 (30 °C) and 0.00258 ± 0.15 (37 °C).
Turning to UUGAAGCAAUAUUACGAUCC, under “37 °C”, the “self-splicing fitness (ln)” value was -1.38 ± 0.38.
As for UUGAAGCAAUAUUACGAUGC, the “self-splicing fitness (ln)” value (30 °C) was -4.76 ± 0.39 and the “self-splicing fitness (ln)” value (37 °C) was -1.58 ± 0.24.
Consider UUGAAGCAAUAUUACGCAAC, for which the “self-splicing fitness (ln)” value reads like this: (30 °C) -1.97 ± 0.25; (37 °C) -2.43 ± 0.39.
UUGAAGCAAUAUUACGCGUC: the “self-splicing fitness (ln)” value reads like this: (30 °C) -3.32 ± 0.33; (37 °C) -1.02 ± 0.33.
With UUGAAGCAAUAUUACGCUCA, the “self-splicing fitness (ln)” value runs as follows: (30 °C) -0.439 ± 0.12; (37 °C) 1.17 ± 0.19.
Turning to UUGAAGCAAUAUUACGGACA, the “self-splicing fitness (ln)” value (30 °C) stood at 0.534 ± 0.1 and the “self-splicing fitness (ln)” value (37 °C) came to 0.655 ± 0.14.
UUGAAGCAAUAUUACGGAGU: the “self-splicing fitness (ln)” value by setting is: (30 °C) -2.51 ± 0.17; (37 °C) -1.83 ± 0.18.
Taken in the same sequence, the figures for UUGAAGCAAUAUUACGGGUU were -1.66 ± 0.093 and -1.66 ± 0.16.
Turning to UUGAAGCAAUAUUACGGUAG, the “self-splicing fitness (ln)” value was -0.0974 ± 0.088 (30 °C) and 0.0801 ± 0.12 (37 °C).
Taken in the same sequence, the figures for UUGAAGCAAUAUUACGGUGG were -0.88 ± 0.059 and -0.498 ± 0.11.
The corresponding values for UUGAAGCAAUAUUACGGUUA are -0.344 ± 0.066 and 0.471 ± 0.086.
Taken in the same sequence, the figures for UUGAAGCAAUAUUACGGUUU were -2.88 ± 0.11 and -2.69 ± 0.19.
For the sequence UUGAAGCAAUAUUACGUAAA, the “self-splicing fitness (ln)” value (30 °C) is -1.42 ± 0.062 and the “self-splicing fitness (ln)” value (37 °C) is -0.368 ± 0.081.
On to UUGAAGCAAUAUUACGUAGC, for which the “self-splicing fitness (ln)” value was -3.42 ± 0.28 (30 °C) and -2.53 ± 0.33 (37 °C).
The corresponding values for UUGAAGCAAUAUUACGUCCA are 0.231 ± 0.094 and 0.472 ± 0.12.
UUGAAGCAAUAUUACGUGAA: the “self-splicing fitness (ln)” value was -1.92 ± 0.26 (30 °C) and -0.781 ± 0.22 (37 °C).
The corresponding values for UUGAAGCAAUAUUACGUUGG are -1.18 ± 0.089 and -0.305 ± 0.15.
The corresponding values for UUGCAGCAAUAUUACGAAGA are -2.37 ± 0.21 and -1.57 ± 0.18.
Take UUGCAGCAAUAUUACGAAGG: the “self-splicing fitness (ln)” value reads like this: (30 °C) -3.92 ± 0.28; (37 °C) -1.53 ± 0.2.
The corresponding values for UUGCAGCAAUAUUACGAAUG are -1.98 ± 0.086 and -0.713 ± 0.1.
As for UUGCAGCAAUAUUACGACAC, the “self-splicing fitness (ln)” value reads like this: (30 °C) -1.37 ± 0.19; (37 °C) -1.22 ± 0.47.
The corresponding values for UUGCAGCAAUAUUACGACAU are -0.522 ± 0.012 and 0.00633 ± 0.032.
Consider UUGCAGCAAUAUUACGAGAA, for which the “self-splicing fitness (ln)” value (37 °C) was -1.47 ± 0.34.
For UUGCAGCAAUAUUACGAGCC, the “self-splicing fitness (ln)” value (37 °C) is -2.7 ± 0.31.
On to UUGCAGCAAUAUUACGAUCG, for which the “self-splicing fitness (ln)” value (30 °C) was -1.13 ± 0.1 and the “self-splicing fitness (ln)” value (37 °C) is -0.473 ± 0.14.
The corresponding values for UUGCAGCAAUAUUACGAUGG are -0.811 ± 0.14 and -1.07 ± 0.19.
Taken in the same sequence, the figures for UUGCAGCAAUAUUACGAUUG were -1.62 ± 0.32 and -0.337 ± 0.21.
As for UUGCAGCAAUAUUACGGAAC, the “self-splicing fitness (ln)” value (30 °C) is -2.24 ± 0.32.
Turning to UUGCAGCAAUAUUACGGAGA, the “self-splicing fitness (ln)” value was -1.85 ± 0.12 (30 °C) and -1.08 ± 0.096 (37 °C).
The corresponding values for UUGCAGCAAUAUUACGGAUA are -1.92 ± 0.15 and -1.12 ± 0.17.
Taken in the same sequence, the figures for UUGCAGCAAUAUUACGGGCU were -1.6 ± 0.16 and -1.17 ± 0.22.
Take UUGCAGCAAUAUUACGGGUG: the “self-splicing fitness (ln)” value (30 °C) is -1.7 ± 0.081 and the “self-splicing fitness (ln)” value (37 °C) was -1.59 ± 0.13.
Taken in the same sequence, the figures for UUGCAGCAAUAUUACGGGUU were -3.77 ± 0.25 and -2.15 ± 0.21.
Taken in the same sequence, the figures for UUGCAGCAAUAUUACGGUCU were -2.05 ± 0.092 and -1.26 ± 0.092.
Take UUGCAGCAAUAUUACGUAUA: the “self-splicing fitness (ln)” value reads like this: (30 °C) -1.32 ± 0.12; (37 °C) -1.01 ± 0.12.
The corresponding values for UUGCAGCAAUAUUACGUGCC are -2.11 ± 0.14 and -1.18 ± 0.15.
The corresponding values for UUGCAGCAAUAUUACGUGGG are -3.24 ± 0.12 and -2.8 ± 0.17.
For UUGCAGCAAUAUUACGUUAC, the “self-splicing fitness (ln)” value reads like this: (30 °C) -2.77 ± 0.15; (37 °C) -2.18 ± 0.17.
On to UUGCAGCAAUAUUACGUUCU, for which the “self-splicing fitness (ln)” value is, setting by setting: (30 °C) -2.44 ± 0.12; (37 °C) -0.872 ± 0.11.
Taken in the same sequence, the figures for UUGCAGCAAUAUUACGUUUG were -2.14 ± 0.14 and -0.998 ± 0.14.
In the case of UUGGAGCAAUAUUACGAAUA, the “self-splicing fitness (ln)” value (37 °C) is -2.1 ± 0.46.
On to UUGGAGCAAUAUUACGACUA, for which, for the setting “30 °C”, the “self-splicing fitness (ln)” value was -1.58 ± 0.41.
Regarding UUGGAGCAAUAUUACGACUU, the “self-splicing fitness (ln)” value runs as follows: (30 °C) -1.94 ± 0.19; (37 °C) -0.866 ± 0.28.
As to UUGGAGCAAUAUUACGCCAA, the “self-splicing fitness (ln)” value (30 °C) is -1.49 ± 0.44.
For the sequence UUGGAGCAAUAUUACGCGAA, the “self-splicing fitness (ln)” value (37 °C) is -1.4 ± 0.29.
UUGGAGCAAUAUUACGCGCG: the “self-splicing fitness (ln)” value (30 °C) was -2.3 ± 0.11 and the “self-splicing fitness (ln)” value (37 °C) is -0.8 ± 0.1.
Take UUGGAGCAAUAUUACGCGGC: the “self-splicing fitness (ln)” value (37 °C) is -1.26 ± 0.41.
For UUGGAGCAAUAUUACGCUCC, the “self-splicing fitness (ln)” value by setting is: (30 °C) -2.79 ± 0.33; (37 °C) -0.876 ± 0.46.
UUGGAGCAAUAUUACGGAAA: the “self-splicing fitness (ln)” value is -3.48 ± 0.47 (30 °C) and -1.64 ± 0.24 (37 °C).
For the sequence UUGGAGCAAUAUUACGGCCG, the “self-splicing fitness (ln)” value reads like this: (30 °C) -1.89 ± 0.3; (37 °C) -0.616 ± 0.29.
As to UUGGAGCAAUAUUACGGCCU, the “self-splicing fitness (ln)” value by setting is: (30 °C) -2.26 ± 0.29; (37 °C) -1.25 ± 0.27.
As for UUGGAGCAAUAUUACGGGCU, under “37 °C”, the “self-splicing fitness (ln)” value was -2.95 ± 0.34.
